Biological target: PAH2 domain of mSin3A
Experiment: fluorescence polarisation

Chain of PAH2 domain of mSin3A (Q60520 whole entry, the tested form may be a part): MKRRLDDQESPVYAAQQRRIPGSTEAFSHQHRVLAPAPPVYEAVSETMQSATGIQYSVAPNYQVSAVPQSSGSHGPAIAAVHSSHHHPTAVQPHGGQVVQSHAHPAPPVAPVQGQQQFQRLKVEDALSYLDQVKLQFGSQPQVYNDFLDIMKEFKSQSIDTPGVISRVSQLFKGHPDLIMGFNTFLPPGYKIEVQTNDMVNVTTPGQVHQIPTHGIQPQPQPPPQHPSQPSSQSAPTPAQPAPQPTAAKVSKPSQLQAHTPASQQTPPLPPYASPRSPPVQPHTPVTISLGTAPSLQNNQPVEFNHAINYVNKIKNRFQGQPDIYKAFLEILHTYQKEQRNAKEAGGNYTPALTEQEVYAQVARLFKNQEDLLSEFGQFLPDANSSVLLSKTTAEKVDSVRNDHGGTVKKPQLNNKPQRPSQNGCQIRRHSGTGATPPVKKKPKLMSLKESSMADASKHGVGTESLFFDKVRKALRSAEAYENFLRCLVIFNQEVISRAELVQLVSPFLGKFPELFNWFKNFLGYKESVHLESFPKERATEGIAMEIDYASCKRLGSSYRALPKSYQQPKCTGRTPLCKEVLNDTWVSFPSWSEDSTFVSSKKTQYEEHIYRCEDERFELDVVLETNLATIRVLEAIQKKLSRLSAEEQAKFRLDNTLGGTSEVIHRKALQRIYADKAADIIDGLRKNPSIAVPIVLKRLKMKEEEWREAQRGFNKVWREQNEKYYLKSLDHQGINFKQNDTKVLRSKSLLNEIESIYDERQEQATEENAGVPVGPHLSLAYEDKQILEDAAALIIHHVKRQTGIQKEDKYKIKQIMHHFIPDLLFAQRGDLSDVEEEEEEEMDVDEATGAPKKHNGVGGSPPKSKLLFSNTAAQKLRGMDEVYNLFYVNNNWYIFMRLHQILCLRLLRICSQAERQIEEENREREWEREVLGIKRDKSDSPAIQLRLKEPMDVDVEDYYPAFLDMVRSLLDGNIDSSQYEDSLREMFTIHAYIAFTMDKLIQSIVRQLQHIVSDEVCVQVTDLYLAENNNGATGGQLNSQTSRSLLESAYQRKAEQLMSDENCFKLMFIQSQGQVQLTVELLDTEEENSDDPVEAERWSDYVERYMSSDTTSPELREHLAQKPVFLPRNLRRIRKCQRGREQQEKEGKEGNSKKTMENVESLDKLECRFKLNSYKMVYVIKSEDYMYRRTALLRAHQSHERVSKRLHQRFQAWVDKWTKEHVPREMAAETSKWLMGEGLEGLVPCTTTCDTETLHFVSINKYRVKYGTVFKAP

| Substance | IC50 |
| --- | --- |
| PF1-SID peptide | 15.6 µM |
| Tat-SID (MAD-SID peptide) | 1.26 µM |
